# Measured values: publication PMC11965559 (Nature Communications, 2024)
# B1: D3/B (SmD3/SmB subcomplex, HT-tag removed) (complex, S. cerevisiae)
# chain 1: MSKIQVAHSSRLANLIDYKLRVLTQDGRVYIGQLMAFDKHMNLVLNECIEERVPKTQLDKLRPRKDSKDGTTLNIKVEKRVLGLTILRGEQILSTVVEDKPLLSK
# chain 2: MTMNGIPVKLLNEAQGHIVSLELTTGATYRGKLVESEDSMNVQLRDVIATEPQGAVTHMDQIFVRGSQIKFIVVPDLLKNAPLFKKNS
# B2: D1/D2 (SmD1/SmD2 subcomplex, HT-tag removed) (complex, S. cerevisiae)
# chain 1: MKLVNFLKKLRNEQVTIELKNGTTVWGTLQSVSPQMNAILTDVKLTLPQPRLNKLNSNGIAMASLYLTGGQQPTASDNIASLQYINIRGNTIRQIILPDSLNLDSLLVD
# chain 2: MSSQIIDRPKHELSRAELEELEEFEFKHGPMSLINDAMVTRTPVIISLRNNHKIIARVKAFDRHCNMVLENVKELWTEKKGKNVINRERFISKLFLRGDSVIVVLKTPVE
# B3: Lot5ΔC, Lot5 (residues 1–227), as used in GFC (domain or fragment, S. cerevisiae, UniProt P34234 1-227, looked up)
# chain: MMKKKPKCQIARTKPSVENVIPYNQFKKTQPRFNGNFSALNNEEYIILFGGGRDLILGSLTPCSSSHLSNQANPQDTSEYGTDLFILNSCIIIWFNGLGYGLEIPYSSVLYHASRRLPDGREGLQLEILLTLERDEVLDMLYQSLAPQACEFDGEEAHAFTVRSVELTIRPKYSIYDRHYNNEIETLFTFENFGVNRGDDLVNNCNEALAVCMDLHGEDVQDQDQEQ
# B4: F/E/G (SmF/SmE/SmG subcomplex, HT-tags removed) (complex, S. cerevisiae)
# chain 1: MSESSDISAMQPVNPKPFLKGLVNHRVGVKLKFNSTEYRGTLVSTDNYFNLQLNEAEEFVAGVSHGTLGEIFIRCNNVLYIRELPN
# chain 2: MSNKVKTKAMVPPINCIFNFLQQQTPVTIWLFEQIGIRIKGKIVGFDEFMNVVIDEAVEIPVNSADGKEDVEKGTPLGKILLKGDNITLITSAD
# chain 3: MVSTPELKKYMDKKILLNINGSRKVAGILRGYDIFLNVVLDDAMEINGEDPANNHQLGLQTVIRGNSIISLEALDAI
# B5: Brr1, full length, HT-tag removed (natural protein, S. cerevisiae, UniProt Q99177 1-341, looked up)
# chain: MKRGESQAPDAIFGQSRAFALSDSSVNPDVIEYLKSVRQEALRTNAISIKNHMNLQKRTRHKSSMYDDEDEGALKRHAISPSLIRLQRNVEIWVRWFNSVKATVLTNAYEFTGYEDETLDLLLLFLKNYLEDMPSKCTTVEKIISVLNQHSFPEKAEEKEENLQIDEEWAKNILVRLEKTKIDSVEDVKKVITEGDKHELVGYNQWFQYLINNEPQHTTFHEKITSKQLWVLIKYMSNTWIKEIHKKGRHYRRLQDWLFYILVHTPERVTAEYTSILRDLGKKCLELIQKKPVEAHENKITLPKEMAELNVEIPAAVENMTITELTVSVIAVNYGQKDLIE
# B6: HT-Brr1, full-length Brr1 with N-terminal HT-tag (natural protein, S. cerevisiae, UniProt Q99177 1-341, looked up)
# chain: B5 chain
# B7: HT-Lot5ΔC, Lot5 (residues 1–227) with N-terminal HT-tag (domain or fragment, S. cerevisiae, UniProt P34234 1-227, looked up)
# chain: B3 chain
# B8: Umini-snRNA (structured_RNA)
# RNA: GGGAAGUGUUACAGCUCUUUUAGAAUUUUUGGAGUAGGCUUUCUGGCUUUUCACCGGAAAGCCCCU
# Experiments:
# [1] = molecular target: B3; assay: SEC
# [2] = molecular target: T1, full-length Lot5 with N-terminal HT-tag (S. cerevisiae, UniProt P34234 1-306); assay: pull-down
# T1 sequence (looked up): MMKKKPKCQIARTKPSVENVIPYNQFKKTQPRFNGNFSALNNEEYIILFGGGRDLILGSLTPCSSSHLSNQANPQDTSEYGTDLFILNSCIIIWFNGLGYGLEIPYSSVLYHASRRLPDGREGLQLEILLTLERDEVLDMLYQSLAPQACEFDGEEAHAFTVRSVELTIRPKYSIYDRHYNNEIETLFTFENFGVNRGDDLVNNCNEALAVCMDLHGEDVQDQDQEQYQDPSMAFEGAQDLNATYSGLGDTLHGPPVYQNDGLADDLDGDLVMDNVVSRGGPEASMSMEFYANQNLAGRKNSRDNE
# [3] = molecular target: B7; assay: pull-down
# [4] = molecular target: T2, D1/D2/F/E/G pentamer (5Sm) (S. cerevisiae, UniProt Q02260 1-109; Q06217 1-110; P54999 1-86; Q12330 1-94; P40204 1-77); assay: SEC
# T2 sequence (looked up) 1: B2 chain 1
# T2 sequence (looked up) 2: B2 chain 2
# T2 sequence (looked up) 3: B4 chain 1
# T2 sequence (looked up) 4: B4 chain 2
# T2 sequence (looked up) 5: B4 chain 3
# [5] = molecular target: B5; assay: SEC
# [6] = molecular target: B6; assay: pull-down
# [7] = molecular target: T3, Brr1Δ(122-197) with N-terminal HT-tag (S. cerevisiae, UniProt Q99177 1-341, Δ(122-197)); assay: pull-down
# T3 sequence (looked up): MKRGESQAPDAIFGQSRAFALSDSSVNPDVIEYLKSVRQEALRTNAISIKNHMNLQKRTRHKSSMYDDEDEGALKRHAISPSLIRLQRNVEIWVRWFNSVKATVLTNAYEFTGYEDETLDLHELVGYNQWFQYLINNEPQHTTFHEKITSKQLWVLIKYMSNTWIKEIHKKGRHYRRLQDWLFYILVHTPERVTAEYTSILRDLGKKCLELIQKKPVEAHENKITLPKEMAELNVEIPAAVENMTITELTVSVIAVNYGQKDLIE
# [8] = molecular target: T2, D1/D2/F/E/G pentamer (5Sm); assay: pull-down
# [9] = molecular target: T2, D1/D2/F/E/G pentamer (5Sm); assay: pull-down; remark: listed apart in the source
# [10] = molecular target: SmD1 (1-109);SmD2;SmF;SmE;SmG;Brr1 (Saccharomyces cerevisiae;Saccharomyces …, UniProt Q02260;Q06217;P54999;Q12330;P40204;Q99177 1-109;1-110;1-86;1-94;1-77;1-341, |||||); assay: EMSA
# [11] = molecular target: SmD1 (1-109);SmD2;SmF;SmE;SmG;SmD3 (1-88);SmB (1-105) (Saccharomyces cerevisiae;Saccharomyces …, UniProt Q02260;Q06217;P54999;Q12330;P40204;P43321;P40018 …, ||||||); assay: EMSA
# [12] = molecular target: SmD1 (1-109);SmD2;SmF;SmE;SmG (Saccharomyces cerevisiae;Saccharomyces …, UniProt Q02260;Q06217;P54999;Q12330;P40204 1-109;1-110;1-86;1-94;1-77, ||||); assay: EMSA
binder,measurement,setting,value
B1,binding result,[1],binds
same,binding result,[2],binds
same,binding result,[3],binds
B2,binding result,[1],binds
same,binding result,[2],binds
same,binding result,[3],binds
B3,binding result,[4],binds
B4,binding result,[5],binds
same,binding result,[6],binds
same,binding result,[7],binds
B5,binding result,[4],binds
B6,binding result,[8],binds
B7,binding result,[9],binds
B8,binding result,[10],binds
same,binding result,[11],binds
same,binding result,[12],binds
